Data published in PMC4486934.

Test system: var2CSA (PfEMP1) (Plasmodium falciparum CS2)
Experiment: cell binding, microfluidic partitioning and qPCR
Conditions: 2'-fluoro pyrimidines, TBB: 20 mM HEPES pH 7.4, 150 mM NaCl, 2 mM CaCl2, room temperature (cell binding); for binding signal: CS2 vs uninfected RBCs

Sequence | binding signal (defines non-specific threshold, BLI in TBB) [ddCp] | binding signal (100 nM, P = 0.0002, BLI in …) [ddCp] | Kd (apparent Kd on CS2 infected RBCs, no enrichment on DC-J, BLI in TBB) [nM]
GGGAGCUCAGAAUAAACGCUCAAAUGUCUCCAGCUCUUGUGGCGAACCCAAGCGGGUUGACCAGAAUGCAUCAUUCGACAUGAGGCCCGGAUCCGGC [scr8.1-1] | 1.24 |  | 
GGGAGCUCAGAAUAAACGCUCAACAACGGAUCACACGCAAGCGAAUCUAUGUCCUUCGGGUCUAAGGGUCGCUUUCGACAUGAGGCCCGGAUCCGGC [8.1-1] |  | 3.12 | 14
